Experimental data as given in US20230416361A1 (MIROBIO, published 2023).

T1: human CD200RLa full length construct on HEK293T cells (human, UniProt Q6Q8B3 24-271)
T1 construct: whole, on cells; also called CD200R1L
T1 sequence (looked up): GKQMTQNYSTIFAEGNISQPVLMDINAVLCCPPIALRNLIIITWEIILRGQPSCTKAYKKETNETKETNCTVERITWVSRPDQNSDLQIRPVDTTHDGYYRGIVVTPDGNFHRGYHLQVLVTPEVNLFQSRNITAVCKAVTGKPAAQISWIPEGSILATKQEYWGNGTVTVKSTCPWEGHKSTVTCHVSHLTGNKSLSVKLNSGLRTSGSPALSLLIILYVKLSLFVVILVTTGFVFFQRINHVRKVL

T2: human CD200RLa extracellular domain fused to mouse CD80 transmembrane and intracellular tail, on HEK293T cells (human; mouse, UniProt Q6Q8B3 24-239; Q00609 247-306, limits assumed)
T2 construct: extracellular domain;domain: transmembrane and intracellular tail; also called human CD200RLa chimeric construct
T2 sequence (looked up): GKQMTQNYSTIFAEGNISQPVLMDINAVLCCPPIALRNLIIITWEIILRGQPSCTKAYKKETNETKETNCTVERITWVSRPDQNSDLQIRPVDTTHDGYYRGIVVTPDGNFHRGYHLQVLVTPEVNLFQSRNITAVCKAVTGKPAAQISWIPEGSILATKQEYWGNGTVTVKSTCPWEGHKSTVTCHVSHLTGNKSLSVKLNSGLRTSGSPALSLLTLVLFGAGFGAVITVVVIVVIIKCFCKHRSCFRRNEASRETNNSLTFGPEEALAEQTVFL

T3: cyno CD200RLa full length construct on cells (cynomolgus, UniProt A0A2K5W6R0 30-275)
T3 construct: whole, on cells; also called cynomolgus CD200RLa expressed on cells
T3 sequence: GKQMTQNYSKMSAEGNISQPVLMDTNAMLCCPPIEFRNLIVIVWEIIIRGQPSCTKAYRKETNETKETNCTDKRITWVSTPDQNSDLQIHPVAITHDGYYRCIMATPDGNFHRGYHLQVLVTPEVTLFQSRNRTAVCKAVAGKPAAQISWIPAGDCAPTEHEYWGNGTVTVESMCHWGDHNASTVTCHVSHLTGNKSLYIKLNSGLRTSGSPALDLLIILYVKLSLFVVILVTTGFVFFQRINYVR

T4: monomeric soluble human CD200R extracellular domain (human, UniProt Q8TD46 29-265)
T4 construct: extracellular domain; also called hCD200R; monomeric CD200R protein
T4 sequence (looked up): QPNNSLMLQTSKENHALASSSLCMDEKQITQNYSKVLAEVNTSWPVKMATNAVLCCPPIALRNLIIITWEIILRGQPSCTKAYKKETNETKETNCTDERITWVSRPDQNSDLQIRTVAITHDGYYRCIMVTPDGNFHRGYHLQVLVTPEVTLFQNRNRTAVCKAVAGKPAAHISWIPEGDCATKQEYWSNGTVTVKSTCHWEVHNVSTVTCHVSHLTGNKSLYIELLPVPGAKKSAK

T5: extracellular domain of cyno CD200R (SinoBiological 11232-C08H, Met1-Leu267) (cynomolgus, UniProt G7NZT0 25-268)
T5 construct: range 1-267; Bought protein
T5 sequence: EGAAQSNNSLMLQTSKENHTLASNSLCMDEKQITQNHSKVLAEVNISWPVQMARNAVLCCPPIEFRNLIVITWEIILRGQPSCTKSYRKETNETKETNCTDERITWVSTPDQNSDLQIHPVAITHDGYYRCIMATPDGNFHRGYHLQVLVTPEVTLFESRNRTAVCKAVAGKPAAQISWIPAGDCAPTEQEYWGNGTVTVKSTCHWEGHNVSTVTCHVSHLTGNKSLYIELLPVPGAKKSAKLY

T6: soluble cynomolgus macaque CD200R1 extracellular domain (cynomolgus macaque, UniProt G7NZT0 29-266)
T6 construct: extracellular domain; also called Cynomolgus CD200R
T6 sequence: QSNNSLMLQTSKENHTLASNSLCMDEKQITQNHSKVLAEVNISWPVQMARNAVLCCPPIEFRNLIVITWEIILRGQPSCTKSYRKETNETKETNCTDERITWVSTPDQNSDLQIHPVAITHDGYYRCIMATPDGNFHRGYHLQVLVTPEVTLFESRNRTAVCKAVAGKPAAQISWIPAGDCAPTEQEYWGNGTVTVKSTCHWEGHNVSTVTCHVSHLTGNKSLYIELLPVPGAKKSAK

B1: hu2131_v20 (antibody, human IgG1, V domains shown)
VH: QVQLVQSGAEVKKPGASVKVSCKASGHTFTSYWMHWVRQAPGQGLEWMGNIYPGSGSINYDEKFQGRVTMTADTSTSTVYMELSSLRSEDTAVYYCLTMTGTSWGRGTLVTVSS
VL: DIQMTQSPSSLSVSVGDRVTITCQASQGTPINLHWFQQKPGKAPKLLISGASNLEDGVPSRFSGSGSGTEFTFTISSLQPEDAATYYCLQFTYIPWTFGQGTKLEIK
B2: hu2131_Q1E_M99G hIgG1k P238D (antibody, V domains shown)
VH: EVQLVQSGAEVKKPGASVKVSCKASGHTFTSYWMHWVRQAPGQGLEWMGNIYPGSGSINYDEKFQGRVTMTADTSTSTVYMELSSLRSEDTAVYYCLTGTGTSWGRGTLVTVSS
VL: DIQMTQSPSSLSVSVGDRVTITCQASQGTPINLHWFQQKPGKAPKLLISGASNLESGVPSRFSGSGSGTEFTFTISSLQPEDAATYYCLQFTYIPWTFGQGTKLEIKR
B3: 2131_chimera (antibody, V domains shown)
VH: QVQLQQPGSELVRPGASVKLSCKASGHTFTSYWMHWVKQRPGQGLEWIGNIYPGSGSINYDEKFKSKAKLTVDTSSRTAYMQLSSLTSEDSAVYYCLTMTGTSWGQGTLVTVSA
VL: DVQMIQSPSSLSASLGDIVTMTCQASQGTPINLHWFQQKPGKAPKLLISGASNLEDGVPSRFSGSRYGTAFTLTISSLEDEDMATYFCLQFTYIPWTFGGGTKLEIK
B4: anti-CD200R antibody clone 7.12.2 (mIgG1k isotype) (antibody, V domains shown)
VH: QVQLQQPGSELVRPGASVKLSCKASGYTFTSYWMHWVKQRPGQGLEWIGNIYPGSGTTNYDEKFKSKATLTVDTSSSTAYMQISSLTSEDSAVYYCTTGTSTYWGQGTLVTVSA
VL: DVQMIQSPSSLSASLGDIVTMTCQASQGTSINLNWFQQKPGKAPKLLIYGAVNLEDGVPSRFSGSRYGTDFTLTVSSLEDEDMATYFCLQHTYLPWTFGGGTKLEIKR
notes: Murine hybridoma antibody, IgG1 kappa
B5: anti-CD200R antibody clone 3.10.2 (mIgG1k isotype) (antibody, V domains shown)
VH: QVQLQQPGSELVRPGASVKLSCKASGYTFTSYWMHWVKQRPGQGLEWIGNIFPGSDTTNYDEKFKSKAIMTVDISSSTVYMHLSSLTSEDSAVYYCITYTGAYWGQGTLVTVSA
VL: DVQMIQSPSSLSASMGDIVTMTCQASQGTNINLHWFQQKPGKAPKLLISGGSNLEDGVPSRFSGSRYGTDFTLTISSLEDEDMATYFCLQFTYLPWTFGGGTKLDIKR
notes: as for B4

Columns and labels:
[1] = molecular target: T1, human CD200RLa full length construct on …; assay: flow cytometry on transiently transfected HEK293T cells
Description: (§1) The binding of CD200R antibodies to human and cyno CD200R and CD200RLa constructs was assessed by flow cytometry of transiently transfected cells. CD200RLa has a charged transmembrane (TM) that is not expected to express well in the absence of appropriate binding partners. Therefore, in addition to the full length CD200RLa constructs, chimeric constructs were used consisting of the CD200RLa extracellular domain fused to mouse CD80 transmembrane and intracellular tail to enable cell surface expression.
(§2) HEK293T cells were plated out at 1 million cells per well in a 6 well plate the day before transfection. The following day cells were transfected with CD200R constructs using 2.5 μg plasmid DNA (a pcDNA3.4 vector containing the CD200R construct sequence) and 10 μl Lipofectamine 2000 (mixed in 200 μl Optimem for 5 minutes then added dropwise to cells). 48 hours after transfection, cells were collected by vigorous pipetting in cold PBS and 50,000 cells pelleted per well in 96 well U bottom plates.
(§3) Cells were then washed and stained for 30 minutes with a secondary staining mix containing a live/dead marker (Near IR LD, Biolegend cat #423106) and APC anti-hIgG (clone QA19A42, Biolegend cat #366906) or AF647 anti-mIgG1 (clone RMG1-1, cat #406618). As a control, cells were separately stained with the commercial anti-CD200R clone OX108 directly labelled with AF647 (Biolegend cat #329308). Finally, cells were washed and resuspended in FACS buffer for acquisition on a FACS Celesta flow cytometer.

[2] = molecular target: T2, human CD200RLa extracellular domain …; assay: as above
Description: as §1, §2, §3

[3] = molecular target: T3, cyno CD200RLa full length construct on …; assay: as above
Description: as §1, §2, §3

[4] = molecular target: T4, monomeric soluble human CD200R …; assay: BLI (Octet), antibody on anti-human Fc probes, monomeric CD200R in solution, 25 C, 1:1 global fit
Description: Humanised variant antibodies combining the different heavy and light variable domains described in Example 6 were produced by transient transfection of HEK293 cells. All antibodies were expressed on a human IgGI isotype with a P238D Fc mutation. The unpurified supernatants were analysed by Protein A-HPLC to determine the antibody concentrations, as a measure of expression yield. […] Binding affinity of humanized variants to human CD200R was assessed by bio-layer interferometry on an Octet R4 instrument. Each antibody was captured directly onto anti-human Fc capture probes (Sartorius 18-5060) for 60 sec followed by baseline setting in assay buffer (DPBS, 0.01% Polysorbate-20). Association of monomeric CD200R protein to immobilised antibodies was measured in 4 different protein concentrations (300, 100, 30 and 10 nM in assay buffer) at 25° C., with an association time of 120s and dissociation of 120s in assay buffer only. A reference probe with no antibody immobilised was used for background subtraction. Kinetic rate constants and binding KDs were calculated using Octet Analysis Studio 12 software. Global curve fitting based on all 4 concentrations using a 1:1 model was performed, from which kon and koff were obtained to calculate KD using the relationship KD=koff/kon.

[5] = molecular target: T5, extracellular domain of cyno CD200R …; assay: SPR (Biacore), antibody captured by anti-human Fc, CD200R extracellular domain injected, single cycle kinetics, 25 C
Description: This example investigates in vitro CD200R binding of anti-CD200R antibodies by surface plasmon resonance. Surface plasmon resonance binding experiments with purified anti-CD200R antibody (expressed on a hIgG1 isotype with a P238D Fc mutation) were performed using the Biacore T200 and 8K+instruments. Anti-human Fc antibody (Life Technologies H10500) was amine-coupled to a C1 sensor chip using standard amine-coupling chemistry. Residual activated carboxyls were blocked with ethanolamine. Antibodies with a human Fc were then captured on these surfaces.
To assess the binding of hu2131_v20_D56S antibody and variants (antibody hu213l_Q1E and antibody hu2131_Q1E_M99G) to the extracellular domains of human CD200R (Met29-Leu243) and cyno CD200R (SinoBiological 11232-C08H, Metl-Leu267), 10-30 RUs of antibody were captured. CD200R proteins were diluted into running buffer (10 mM HEPES, 150 mM NaCl, 3 mM EDTA, 0.01% Polysorbate 20, pH 7.4 with 0.1 mg/mL BSA) (full-length antibody sequences are disclosed in Table 10). Five three-fold serial dilutions were performed for each CD200R, with highest concentration being 100 nM. Samples were injected using a single cycle kinetics scheme (Karlsson Anal Biochem et al 2006). Data were analyzed using Biacore Insight Evaluation Software and fit to a simple kinetic model, from which kon and koff were obtained to calculate KD using the relationship KD=koff/kon. Experiments were run at 25° C.

[6] = molecular target: T4, monomeric soluble human CD200R …; assay: SPR, captured antibody, soluble monomeric receptor injected, single cycle kinetics, 37 C
Description: (§4) The binding affinity and kinetics of the CD200R antibodies of the present disclosure to human or cynomolgus CD200R were determined by surface plasmon resonance (SPR) using the Biacore T200 (GE Healthcare). Mouse antibody capture kit (GE Healthcare) was used to coat a Series S CM5 Sensor Chip (GE Healthcare) with polyclonal anti-mouse IgG.
(§5) Anti-CD200R antibody was captured onto the biosensor surface and a negative control antibody (clone Mopc21; Biolegend) captured in the reference channel. Various concentrations of monomeric soluble human CD200R extracellular domain, soluble cynomolgus macaque CD200R1 extracellular domain or soluble cynomolgus macaque CD200RLa (a highly homologous activating receptor) were injected over the immobilized antibodies in the buffer 10 mM Hepes, 150 mM NaCl, 0.005% v/v Surfactant P20, pH 7.4 (HBS-P) at 37° C., in a single cycle kinetics analysis. Association and dissociation rates were fitted using BiaEvaluation Software (GE Healthcare) after reference and blank subtractions, and dissociation constants were calculated (Table 2).

[7] = molecular target: T6, soluble cynomolgus macaque CD200R1 …; assay: as above
Description: as §4, §5

| Binder | binding result [1] | binding result [2] | binding result [3] | Kd [4] [nM] | Kd [5] [nM] | koff [5] [s⁻¹] | kon [5] [M⁻¹ s⁻¹] | Kd [6] [nM] | Kd [7] [nM] |
| --- | --- | --- | --- | --- | --- | --- | --- | --- | --- |
| B1 | no binding (tested: 10 ug/ml) | no binding (tested: 10 ug/ml) | no binding (tested: 10 ug/ml) | 0.00276 | – | – | – | – | – |
| B2 | no binding (tested: 10 ug/ml) | no binding (tested: 10 ug/ml) | no binding (tested: 10 ug/ml) | – | 0.0917 | 2.23e-05 | 244000 | – | – |
| B3 | no binding (tested: 10 ug/ml) | no binding (tested: 10 ug/ml) | no binding (tested: 10 ug/ml) | 0.00304 | – | – | – | – | – |
| B4 | – | – | – | – | – | – | – | 2.9 | 0.708 |
| B5 | – | – | – | – | – | – | – | 0.4 | 0.0015 |
